T1: TRB5 (Arabidopsis thaliana (Col-0), UniProt F4IEY4 1-287)
T1 sequence: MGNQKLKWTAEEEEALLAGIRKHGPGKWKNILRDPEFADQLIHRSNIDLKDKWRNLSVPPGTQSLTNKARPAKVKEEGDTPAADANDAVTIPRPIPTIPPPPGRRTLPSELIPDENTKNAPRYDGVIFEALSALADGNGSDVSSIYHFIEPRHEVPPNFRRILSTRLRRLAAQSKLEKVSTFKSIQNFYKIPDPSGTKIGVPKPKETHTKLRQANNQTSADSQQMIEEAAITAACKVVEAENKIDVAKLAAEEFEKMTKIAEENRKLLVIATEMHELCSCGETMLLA

T2: TRB4 (Arabidopsis thaliana, UniProt F4I7L1 1-296)
T2 sequence: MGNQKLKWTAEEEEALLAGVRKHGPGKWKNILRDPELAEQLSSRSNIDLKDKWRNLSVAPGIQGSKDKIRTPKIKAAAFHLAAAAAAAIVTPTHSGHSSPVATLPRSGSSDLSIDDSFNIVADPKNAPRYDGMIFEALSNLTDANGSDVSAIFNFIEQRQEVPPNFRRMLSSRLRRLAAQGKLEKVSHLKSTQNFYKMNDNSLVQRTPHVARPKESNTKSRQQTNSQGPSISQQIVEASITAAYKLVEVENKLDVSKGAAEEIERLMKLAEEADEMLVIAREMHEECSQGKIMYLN

T3: TRB1 (Arabidopsis thaliana, UniProt Q8VWK4 1-300)
T3 sequence: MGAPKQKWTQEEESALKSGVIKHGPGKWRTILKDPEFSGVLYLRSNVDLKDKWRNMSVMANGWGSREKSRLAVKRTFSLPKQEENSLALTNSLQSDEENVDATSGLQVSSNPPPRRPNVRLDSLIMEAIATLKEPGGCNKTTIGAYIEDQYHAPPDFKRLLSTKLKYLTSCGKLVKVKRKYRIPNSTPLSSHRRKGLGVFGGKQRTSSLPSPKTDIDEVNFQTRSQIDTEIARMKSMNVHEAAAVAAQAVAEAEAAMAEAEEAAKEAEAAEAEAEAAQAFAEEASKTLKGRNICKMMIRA

B1: telo-box (dsDNA)
DNA 1: TTTTTCACGAAAACCCTAATCGCAGTCG
DNA 2: CGACTGCGATTAGGGTTTTCGTGAAAAA
B2: telomeric (four plant telomeric repeats) (dsDNA)
DNA 1: AAACCCTAAACCCTAAACCCTAAACCCT
DNA 2: AGGGTTTAGGGTTTAGGGTTTAGGGTTT

Assays:
TRB5 [1] = biological target: T1, TRB5; test: EMSA; non-telomeric competitor 1-100x; 10 mM Tris-HCl pH 8.0, 1 mM EDTA, 1 mM DTT, 50 mM NaCl, 5% glycerol; 10 pmol protein, 1 pmol probe, on ice 20 min; 7.5% PAGE, 0.5x TBE, 15 C; conditions: protein: recombinant; tags: His-tag (pHGWA); chain copies: 2; label: 32P 5'-end; blunt
TRB4 [2] = biological target: T2, TRB4; test: as above; conditions: protein: recombinant; tags: His-tag (pHGWA); chain copies: 2; label: 32P 5'-end; blunt
TRB5 [3] = biological target: T1, TRB5; test: EMSA; high-molecular-weight complex not entering the gel; resists 100x non-telomeric competitor; 10 mM Tris-HCl pH 8.0, 1 mM EDTA, 1 mM DTT, 50 mM NaCl, 5% glycerol; 10 pmol protein, 1 pmol probe, on ice 20 min; 7.5% PAGE, 0.5x TBE, 15 C; conditions: protein: recombinant; tags: His-tag (pHGWA); chain copies: 2; label: 32P 5'-end; blunt
TRB4 [4] = biological target: T2, TRB4; test: as above; conditions: protein: recombinant; tags: His-tag (pHGWA); chain copies: 2; label: 32P 5'-end; blunt
TRB1 = biological target: T3, TRB1; test: as above; conditions: protein: recombinant; tags: His-tag (pHGWA); label: 32P 5'-end; blunt

Binder	binding result (TRB5 [1])	binding result (TRB4 [2])	binding result (TRB5 [3])	binding result (TRB4 [4])	binding result (TRB1)
B1	binds	binds			
B2			binds	binds	binds

Source: PMC10167121, “Completing the TRB family: newly characterized members show ancient evolutionary origins and distinct localization, yet similar interactions”
